Drawing on a protein production outcome set (Wang et al. 2014), this text covers protein production for 18 sequences.

A short description of the series: label from the status in PepcDB records.
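Note: failed if final PepcDB status was selected cloned or expressed and not failed if soluble or beyond.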

Turning to “MTVWDRPEPPHRPVPLDRERIVAAAVALADEGGLTAVSVRKVAARLDAGPMRLYGFISTKDELFDLMVDAVYAEILPEERAGDWREALRVLAHRTRQAALRHPWLADLLGGRPALGPNGLAVAEATLAALDGLADVDTVMRAVETVSSYFTGAVRREIADLRAERATGLSKPEWQREHGPHLTRMLATGRYPALAKAVHDGTHVDAEESFATGLDWVLDAVAVRLARPPGS”, the protein production result is “not failed”.

In the case of “MTVWFVAAVAVLIIELLTGTVYLLVVSAALAGSGIAYGLTGSTPAAVLTAALLSALGIWFVHAKTAVGKVETDSYQDLDTGKYAEILRYTGGNRYEVFYRGTHWQAQNTGQEVFEPGTRALIVRKEGNLLIIANP”, the protein production entry is given as “failed”.

With “MTWCSLSVISCTRFYSRQRTAMLNSLKQEKFLLLALLAAVAAYPLEHLLLGSGQGIALGAGLVLIGFIVMASMRVAHHAELLAEKVGDPYGTMILTLAAVLVEVVILAIMMSNEASPTLVRDTIYSAVMLDINGILGLAALMGGIKHGEQPYNDDSARTYSVMILTAMGVSMVVPEFIPEADWKVYSAFTIGAMVVLYTLFLRMQVGPHSYFFSYSYPEKRRNKEAQEQPHAINLAWSIGILVFGVVVIGALAEVMSKTLDLGLEGTGAPPVITAILVAAISAAPEILTALRAALANRMQSVVNVALGASLSTVILTVPVMEAMALYTGQPFQMAMTPVQTVMVFITLIVSAINLNDGETNAIEGMTHFVLFATFIMLSLLGL”, the protein production entry is recorded as “failed”.

Take “MTWLLFGAGNGVGGCLLQRAIECEQAVVLVLRNPEQAKHWREQGVTVVEGDACDPETVAEACRVAGPSAIVVSTMGGGTVNYQGHRTVIDGAEQAGIKRMLLVTSLGCGDSWPLLSPRARAAFGFAVREKSLAESWLQSSTLDHCIVRPGGLLDVVATHNAKLTQGAATLGLVSRSDVALAVDQLLQQPVFGNHIYNLIDPDLTMPAIPLEHHHHHH”: the protein production entry is “failed”.

Turning to “MTWPARRVLYAIWQDPWMTVSRATYISRMLALVNWATWPDDADTSDTPAACVDGDCSRPNAPGERYPTFRWSDALVRELDAVLLSTEPYRFTEDHADALERQIGKPVLLVDGEMLSWYGSRAVAGARYLRSLAQGFLEHHHHHH”, the protein production entry was “failed”.

Take “MTWQPFYVGTGQAPAGAEEQVVLPPAPPWREFPRRSQHRQFVPPPRLAEAVNAALALRRPLLVTGPAGSGKSTVIEQVAAELALGDVLRWHITSRSSLAEALYRYDALGRIHAQRLEGPGGSDDIAPFLRMGPLGTALLPSARPRALLIDEIDKSDLDLPSDLLDVLERGEFEIPELARYGTDVVPVREHGGERTHLIARGRVQCAEFPFIVMTSNGDRDFPAAFLRRCIRFTMPLPTPETLLRVVEAHMGPEKAAADETGRLITVFLERLTAGESLAVDQLLNAVHLLTGDGAPGDDRRQAIAELILRELSHALEHHHHHH”: the protein production result was “failed”.

Consider “MTWQQFKQQYLVRFWAPMPAVIAAGILSTYYFGLTGTFWAVTGEFTRWGGHLLQLVGANPETWGYFKVIGLQGSPLDRIDGMMIIGMFGGCIAAALWANNVKLRMPQSRIRIAQALIGGIIAGFGARLAMGCNLAAFFTGIPQFSLHAWFFALATAAGSYFGARFTLLPMFRIPVKLKKVDKASSVKQDENQARLRFRIGMLVFAAIIGWGLLTMFNAPKLGIAMLCGVGFGLLIERAQICFTSAFRDMWITGRTHMAKAIILGMAVSAIGIYSYVQLGVPPKIMWAGPNAVIGGLLFGFGIVLAGGCETGWMYRAVEGQVHFWWVGLGNVLGSTLLAYYWDDLAQPLATNWDKVNLLTSFGDKGGLLVTYLLLALSFAAMLLWEKRFFARKAKRDEQLIAEAA”, for which the protein production entry is listed as “failed”.

For the sequence “MTYLFVAAGGALGSTLRYWLSGLIAGAIGQSFPWGTLVINISGSIVIGAFATLTGPDGRVFIPGDWRQFFMVGVCGGYTTFSSFSLQTLTLAQEGQGLWAAANVVLSVVFCLIGVWLGHVGAVLINEGV”, the protein production result is “failed”.

Turning to “MTYLQTTADFYAEVAQTPEVGLCCVQSSPLQLPGLVIPAVMQEMNYGCGSTVHPNELGNKSKVLYVGVGGGLEALQFAYFCRQPGAVIAVDPVEAMRQAAQRNLQLAAEKNDWFSVDFVDIRAGDAFTLPVPDNSVDVVAQNCLFNIFEPEDLSRALKEAYRVLKPHGRLIMSDPIAARPIPQHLRQDERLRAMCLSGALTYAEYIQHLIDTGFGQIEIRARRPYRLLDSVTYKLDENLLLESLDSVSFKVPIPSDGACVFTGKTAIYAGSDPLFDDQAGHILQQGVPSAVCDKTALNLGSTYPNKILITDSTWYYDGGGCC”, the protein production result was “failed”.

As for “MTYQKIIDKINQQISQHVYLGASLALYDGQWQEFYLGETIPHHKTKAGLVYDLASVSKVVGVGTVIIFLLQANHLKLDEPLQAYYPNFHDSSVTIRQLLTHTSGIDPFIPNRNKLDFAALKQAINHIEVTKTKSFHYTDLNFILLGFLLEEFYDQSLDRIIKEHVLKPFGMEKTSFGPVKRAVPTGKTIPIGRVHDPKAQVLGIHTGSAGLFSNLEDLKCFVNHYLSDAFAKPLTQDFAYADKTRSLAWDLTGDWLFHTGYTGTFILLNIKKQSAAIFLSNRTYEKDERSQWILDRNDLIEVIKAALKKVSDSNCD”, the protein production result was “failed”.

For “MTYSFSKPVSWVFLFTAVIYLVSLSFIQYPATTVLKPIPIVCLIVGVFRTSLSSSAKILLILALVFSLAGDVVLTLPFSLQLELGIACFLLAHCFYITLFLKSFEFNRLHLFYYLPIFLFMGFAAFTMIPYLGNLLIPVMIYFCVLMLMVFSAFQVKKETLTISSGALFFLISDLTLALNLFIYTQADVRIFVMFTYYVAQFLLTFGLVRLYEKGG”, the protein production result is on record as “failed”.

For the sequence “MTYVYRKNPVAAATVTVKYIDTQGNSISDSIPLSGNVDQEYTTEQKIISGYTFKEVQGNKSGLFSTTPQTVTYIYTKNPIEIKTGTVTIKYVDTNGNSISDEITKSGNVGSLYTSEQKKILGYNFKEIQGIAEGQFTIESQTVTYVYTKISTPTIIKTSVIPPKTLSVKTLPKESLPETGDKFFGFTLLSGSLLILVSTTLYLLKSRKYK”, the protein production result was “failed”.

As for “MVADAAAAGSGGVGVCARWPRASAEGARMKLTPRVHDWYVGRVVLSTVLLTWAVLLGLDLVNAFASEAKDIGQGSYTFGHAVAYVAYTVPRRAYTLFPTAAVIGALMGLGQLAATSELTALRALGVSRKRMSASVVAAMALLTASMVISGETIGPWAQNQADTLKASARYNSDMAASLYAGLWAREGDTFLNALSGEEKLLDGGDTALDLHDVRLYHLDSSGRMQQLTYASVAEHRDGRWTLRQVRRDTFQERSVQRETFPELPWQSQLNPAALAAGLAKPRNLSAHDLEQSIEYRSRNGLDARDYEDQYWSRWFYPLNVLALCMAAIPFSFGSLRSGGLGKRLFLGILFALGFWLLQLFFGRMAGALKLDYRIAYALPPMVMLGVSAWLFRRRSS”, the protein production entry is listed as “failed”.

Take “MVAKGLIRIVLDILKPHEPIIPEYAKYLSELRGVEGVNITLMEIDKETENIKVTIQGNDLDFDEITRAIESYGGSIHSVDEVVAGRTMVEEVTTPQD”: the protein production entry is “failed”.

Take “MVAQNSVVVIGASGFGRESLDVLEAMKEAGHSLEIIGVVDDNPAAINLQRLAERKIEYLGTLKEWIEGSPKSCKYVLAIGNPTIRHKLSALLDKSGFDAFTAVHPSAVIGSQVVFGSGAVVCSGAVISTNVRLGVHVHINPNVTIGHDSILEDYVSINPAATISGEVLIMEETLIGAAATVLQGLTIGNRSLVGASSCVTKDISAGKVVKGIPARLEHHHHHH”: the protein production result is recorded as “not failed”.

For the sequence “MVARDTTAPQVKIVNPVTGNVSGSNVPISVNASDDSGASGITYALYIDGVLKATGKGSTLGYNWNIRNVAAGAHTVQVVAKDAAGNSASSSLEHHHHHH”, the protein production result was “not failed”.

For “MVAVTYSPGPHLERFLASLSLATERPVSVLLADNGSTDGTPQAAVQRYPNVRLLPTGANLGYGTAVNRTIAQLGEMAGDAGEPWVDDWVIVANPDVQWGPGSIDALLDAASRWPRAGALGPLIRDPDGSVYPSARQMPSLIRGGMHAVLGPFWPRNPWTTAYRQERLEPSERPVGWLSGSCLLVRRSAFGQVGGFDERYFMYMEDVDLGDRLGKAGWLSVYVPSAEVLHHKAHSTGRDPASHLAAHHKSTYIFLADRHSGWWRAPLRWTLRGSLALRSHLMVRRSRRRKLKLVEGRH”, the protein production result is on record as “failed”.

Consider “MVCYNNPMELLMKIIAFSCHLFFIGLSYQLLISVIDWTKFSHYHPENLGRLRLFVFLLATALGYLVSHCMLELLQISQTLFFEFR”, for which the protein production result is “failed”.
